Source: a protein production outcome set (Wang et al. 2014)

Assay: label from the status in PepcDB records

For “MARPSGPATMRTTDGGPMRDIDWLLTDAHALRERGELDPARALYDEALEKARATGETEGLAKALRHVSDMDREAGRLEAALAAAEEAATLYGALGREHRLDLANALRLTALALEALGRPALQPWREAGDLYAELDIAAGLAEAERHLGLVVRPAQSVELEPLARLWWQGWRDAHLPIVPEALARLRTLESFTTRMAAALPQVRVLGPVGAPIGLHLIKDDELNQLYLAAEARGAGFAAVLMADAEAHLADAGVRKAWLACAIGNDRAARFYEKSGWTRARAEIVPTETPAGPFPLEVWRYEKVLTRSEPQTL”, the protein production was “failed”.
In the case of “MKVDVDEKTYIITMANDITKLYEENKRNLHYSITDPLTGAYNRKYLNDRFDIFIGDYIVLIDLDNFKMINDYEGHNVGDKILCDFVSLLNKELINSTSIIRLGGDEFIVIFSSDVDKNYVYSQLEALRENFLKVFSKYKYLSFSYGVDTVKRNLKLTIVELDKKMYKNKEKNKKKFDKNLEHHHHHH”, the protein production is reported as “not failed”.
In the case of “MKKQYWWIIVTYILMQLSGVVGLPLLLKTGLYDNRGFTIEEKGQIITGHWAIISFFIALCIVLWLLRTDIRDRHLDPMRSSVPATIGWIFIGFFLAIISQSIAGMIEMYVFGVPRGSENTDRLLDIARTIPWFLIVVSIIGPILEEIVFRKILFGTLYKKFNFFIAAIISSLVFATIHFDFTHLLVYTAMGLVFAFLYVKTKRIIVPIAAHVAMNTLVAIGQIFMSNEQIQEMIKEAEKMQGFIGGFFV”, the protein production is reported as “failed”.
For “MKEFVHDYLAASVENEEEGGRMRWYPWHSAEYRFNHILNVVDIATKIARKEGANVDVTRVAALFHDIAKLEAEQDLHAEAGARIAREYLRAHGDYPESFIEQVCSAVEVHSYQGSLDDLPLEVQCLIEADILDKVGANGTALMLLRMGYESRTHMDAAEMVDRVIERGEDARERVQSDTAESLVHQRLKRTRWFQEWLTMEVAEMAVEDDLDDVATGMGDSLEHHHHHH”, the protein production was “not failed”.
In the case of “MIIFFLLIIIFLITALLFLLIKELHLSTASNYIMTIFLSLIILFIILKPEVCISASISGAKLFFFSVFPYVFPFLIITNLIICYDGIEIYSKLLGPILCLPQRLPKKASIVLMVSFLCGYPLGAKYAADLYENDIISFSTFERLVNIASNPGPLFIIGAVGTSMLKNKYLGYILLISCYLSCIAMGIILPNKKDDFSTKKTKWNVSEKHSIGTALKTSTENAVKVILQVMSFIIIFSVIIGILKQSVIFKNSEASFIKTFILGIVEMTNGSSMLSSSSFPIELKVITISFLSSFGGLCVIAQIYSFIGKYKISYLKFISLKVIQGVISSIICFLLFKFLYVNNTISTFNANNNFLSPSHFFTVAVILAVLPILIYKIKKTI”, the protein production is reported as “failed”.
For “MSSKPLLTLQELAAQNILRNEALAISALQYLPELFLPQLLKQAYDGNHLKVLRAIVSSWPFPRLPLGALKKRTPYLETQLQVVLEEVDKLLIQEVHPREYKLEVLDLRSVGQNYLNVWPGAMDDWLPKTTQTDPCCSKTVMTQPLKVLVDLQLNNRGQSRLFSYLVQWSDRRKGLLQLYCNKLQIWSPSQQNYRKLSQKVNLDYVETLGLHSSCSPSFLLNFAPYLRQMRNLRKLALSNIREEHIISPEKRRCIITRFTLQILKLESLQKLHLDAVCFLEGHLDQLLGSVKTSLDELAVTHCNLSVSEWSHFSEFPCVSQLQQLNLENVRLTGLSPEPLQVLLVKAGPTLVALDLEDCHLEDGQLYAILPALSKCFKLTKFSFYGNQISMLAMKDLLHHTASLIHLRLELYPVPQDSYDYHGTPLMQRMQQHCDELMNLLKTFRNPGRVFFGTDRCDQCCNRYIYNKTIMCNCRRSY”, the protein production was “failed”.
With “MDFLTKLAIAFLIGIMVGVEREHRGLEHEIFAGVRSYSITCITGMLVALASESIGTGFVYVSTLFFAAMCSIITYSKIFLFKRIGVTSPITLFFIFVMGVLVGYDYGLFAIVSSIVVAFLLIQKQPLHQFAGNLTKEELYNAIQFLAVAFILYPVMPEKQFFGLLNLRYAILIVILVSLISFSSYVLLRKFGTKRGLYYSGFLGGFINSEATTGALAGLSKKAEEMAAPVITGILLCNISMLIRNLVLAFIVDPTGRTTMLMLLPQLVLIIVSIGMAYRHSKKVCPIGGGELKIQSPFSLGQAFKFGIAFTLILVIGNFAYNAAGTTGIYLTALGALVSSSGVIVSVTLLAVSGNISYEVAANTAVIASLVSTVNKILLSKISGSSSLFSLAIKDFGIIAATGTLALVILNFL” the protein production was “failed”.
For “MPSQDWERSVLGCSMQVGQGWCCVDLSDISCVQDVAKEVLDCYGCVDILINNASVKVKGPAHKISLELDKKIMDANYFGPITLTKVLLPNMISRRTGQIVLVNNIQAKFGIPFRTAYAASKHAVMGFFDCLRAEVEEYDVVVSTVSPTYIRSYRASPEQRNWETSICKFFCRKLAYGVHPVEVAEEVMRTVRRKKQEVFMANPVPKAAVFIRTFFPEFFFAVVACGVKEKLNVPEEG”, the protein production was “failed”.
In the case of “MSMPNHPNLTTADAKKILNKFNCLDIAPILKPSEKESVRRALILITKLSDYQILGICADTADEGLLAMKTYSHALGYEVPIDLPVVEGPVYIKLNGKNGLCYLDSYAGHHRGVLVSCQSYYEGGINEMYGHLPLDLFV”, the protein production is reported as “not failed”.
With “ISTVSGKVERLISFDIAKRWYLRDIAERMYTSESLIKKKLQDENTCFSKILLASRMSMARRLLELRQIPLHTIAEKCGYSSTSYFINTFRQYYGVTPHQFAQHSPGT” the protein production was “failed”.
For “MTFALGQRWISDTESDLGLGTVVAMDARTVTLMFAASEENRVYARNDAPVTRVTFNVGDVIDCQEGWSLKVEEVLEDEGLYTYFGTREDTQETAVVLREIFLSNQIRFNKPQDKLYAGQIDRMDNFVLRY”, the protein production was “failed”.
With “MALRVTFVAAARSSPLLAERFDDERPLDQAGWNEALRAAGDLLPLAAAELRYCSPTPRSRATGDAIGCAPLSQLALRACDMGRWRGLTLGEAMAREPAAVDAWLADPRSAPHGGESLLGFITRVGGWLDTRPGEDGDRIVAVAEPSVIRAALVYALKAPPGTYWNLDVRPLSTTTVTGRAGRWSLRFEGTPDQGATRPAFRGGNPL” the protein production was “failed”.
In the case of “NWKTRLRMLNHFPKPTFEDIPLLDLALSDEKVPVRRQAIVLLGMIESKEILPYLYKGLRDKSPAVRRTAGDCISDLGYPEALPEMVLLLDDPQKIVRWRAAMFIFDEGNAEQLPALKAHINDNAFEVKLQIEMAISRIENGDEALGSVWKQMAN”, the protein production is reported as “failed”.
With “MGAIEDIYEDLETDVPEEEFREAVEEKVEQMGGLADEETAAMLLAHELNENEVNAIADIEPGMDEVKFLAKVMAIGDLKTFERDDEDEDGRVINVEAADESGSLRLAFWDGQAVDIDEGKLEVGDVLRVKGRPKDGYNGLEVSVDKAEPDEDATIDVEPGAGSSIDALTMGQSDVTLRGLVLDTDSIRTFDRDDGSEGRVSNLTLGDETGRIRVTLWDDRADRADELDAGAAVEIIDGYVRERDGSLELHVGDQGAVDEVEDDVAFEPDADPIAEVELEETADIAGVVRSADPKRTFDRDDGSEGQVRNVRIQDATGDIRVALWGDKADKDIAPGDEVLAADVEIQDGWQDDKEASASWNSTIVVLDDGADLATGGAGGGASAETTDAEHAGLSSFGDEGDDTDADSSGNEAAAVSAGTGDTSPDGGAQSAGQQVEFTGTVVQTGDPVVLDDGEQTMSVETGERVQLGQEITVRGELRDDRLHAEDVFLEHHHHHH” the protein production was “failed”.
For “MGGEDDELKGLLGLPEEETELDNLTEFNTAHNKRISTLTIEEGNLDIQRPKRKRKNSRVTFSEDDEIINPEDVDPSVGRFRNMVQTAVVPVKKKRVEGPGSLGLEESGSRRMQNFAFSGGLYGGLPPTHSEAGSQPHGIHGTALIGGLPMPYPNLAPDVDLTPVVPSAVNMNPAPNPAVYNPEAVNEPKKKKYAKEAWPGKKPTPSLLI”, the protein production was “not failed”.
With “MAKKKNVSVISVEKPTWFPLTDETGAFPVYGAPITIGTAVSIKPDVTTETTPDYGDSVVQDQYVAFGGAEVTLETNGYQNEVLAEITGGKKLKGGVLRSADDIASDGAFAYRRRKSNGKYRYTIFYKGKFALTSDETSTLEGSSVSYTHPEWTGSFVDVPGLGYMYSVDEDDEGVDLEMIKNWFTEVMDPRKENTTAVTGVTLDQTELNLKVGQTATLTPTITPDNASNKKYQFRSESEAIGTVTPIQGKVTAVGEGTTEIVVTTEDGNFTAKCTLNVTTADLEHHHHHH” the protein production was “failed”.
For “MKIGIVIPAHNEEQHLSACLQSIQQAIQHTGHEQVEILVVLDSCTDQSRSVVESHQVNWIECNFACVGKARDLGIRQLIDQGVIWVACTDADTIVDSDWILCQMLHQPTDAICGVVTLDDLSHLSVQQQQKYLAHYQDSMDHQHIHGANLSFSAEAYIQAGGFEPIPCHEDVSLIEKFIKQCCKVTRSNLVRVTTSSRLNGRAPEGLSYFLKHL”, the protein production was “failed”.
